Reference: the supplement of paper PMC9170038

Tested on: MS2 coat protein
Assay: apparent KD of MS2 coat protein; designed switch direction (-1 OFF switch, 1 ON switch): -1; higher = weaker reporter binding
Outline: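 On Illumina chips, designed RNA switches with common flanks were made by stalled E. coli RNA polymerase. Titrations with SNAP-549-labelled MS2 coat protein, doubling from 0.7 or 1.5 nM to 3 µM, were done with no input, with 200 uM small-molecule ligand, or with an oligonucleotide input. Apparent KD is the median per design over clusters, from curve fits of normalised cluster fluorescence.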

[1] = input ligand: microRNA oligo, concentration not stated
[2] = Eterna round: R95, input ligand: FMN 200 uM
[3] = Eterna round: R95, input ligand: microRNA oligo, concentration not stated
[4] = Eterna round: R95, input ligand: none

Sequence | apparent KD of MS2 coat protein (input ligand: FMN 200 uM) [nM] | apparent KD of MS2 coat protein (input ligand: none) [nM] | apparent KD of MS2 coat protein [1] [nM] | further results
AAGUUGUGAGGAUAUACACAUCGUGCGGAAAGAUCCUUGUCACAUGAGGAUCACCCAUGUAGAAGGCGCGGUAU [Eternabot (L1) Solution 94] (Eterna round: R97, puzzle: Exclusion 2) | 530 | 740 | – | –
UCUGUUAUGCGAGGAUAUCGACCAUUCCUCUUAACAUGAGGAUCACCCAUGUGCUAAACCUACAACGAGAAGGCGCUCAUACUC [JR_ExcNG2_Sub068] (Eterna round: R96, puzzle: Exclusion NG 2) | 156 | 143 | 102 | –
AAUUAUUAUUGAGGAUAUGGUAGUGAAACACUACCAGAAGGCGGUAUAAACAUGAGGAUCACCCAUGUGAGCCUGAUGCUUAUG [Ex NG1 #45] (Eterna round: R96, puzzle: Exclusion NG 1) | – | – | 18.6 | –
AAUAACAUGUUGAUCAAAGACAUGAGGAUCACCCAUGUCAGCUUUUUGUUCGUAGAUUAACACUAAUAAUAAUAAUA [Stov1new/2-C] (Eterna round: R97, puzzle: Sensor, turn-off variant 1) | 16.5 | 16.5 | – | –
AGCUGUGGCCGAGGAUAUACAUGAGGAUCACCCAUGUUACAUAAUUCGACAUGAGAAUACGAACCGUAGAAGGCGGUCUCAGCA [Eli eng2 - 002] (Eterna round: R96, puzzle: Exclusion NG 2) | 127 | 66.1 | 37.8 | –
AAAAUGUAAGGAUAUAGCCGGAACCCAGGGUCAAUACCCGGCUAGAAGGUACAUGAGGAUCACCCAUGUAAGAA [Excls4-VI] (puzzle: Exclusion 4) | – | – | – | apparent KD of MS2 coat protein [2]: 21.6 nM; apparent KD of MS2 coat protein [3]: 18.9 nM; apparent KD of MS2 coat protein [4]: 16.5 nM
AAUAACAGAGGAUAUACUGUUUUAUGUGUUUGUUAUUUUGAACAUGAGGAUCACCCAUGUAGAAGGCUGAUUGA [JMF 76] (puzzle: Exclusion 2) | – | – | – | apparent KD of MS2 coat protein [3]: 46 nM
AGUACUAACACGAUAGUGUUAGUACAAUAAGCUUGUGUUACAUGAGGAUCACCCAUGUCCUCAUAAGCUCGUCUUAU [Mat - Sensor v3 - Turn-off var 2 - D54] (puzzle: Sensor v3, turn-off variant 2) | – | – | – | apparent KD of MS2 coat protein [2]: 105 nM; apparent KD of MS2 coat protein [3]: 30.4 nM; apparent KD of MS2 coat protein [4]: 129 nM
GUGACCAUAGGAUAUACAUGAGGAUCACCCAUGUGCAGGCCGAAAGACCUGCGGUCAUGUAGAAGGAUGUAAUU [EX3 A.17] (Eterna round: R97, puzzle: Exclusion 3) | 19.6 | 16.4 | – | –
CACCGUUACGUAGGAUAUAGUACAUGAGGAUCACCCAUGUAAUAAAUGAGAAUUUCGGAUGUAUGCUAGAAGGACGAAAUCGGC [Ostricism 50 - Jieux - Exclusion NG 2] (Eterna round: R96, puzzle: Exclusion NG 2) | – | – | 39.9 | –
UUGUUAUAUGUAGGAUAUGCAUAUUAUUAUUAUGCAGAAGGACAUGAGGAUCACCCAUGUAUAUUGUUAUUAUAUAUUAUAUAU [Title] (Eterna round: R96, puzzle: Exclusion NG 1) | – | – | 19 | –
CAGUACUGAGGAUAUACAUGAGGAUCACCCAUGUGCUUCAGCUAGGAUACUAGCAUUAGUAGAAGGCAGUACUG [Fiskers Ex 3 828 mod 13] (puzzle: Exclusion 3) | – | – | – | apparent KD of MS2 coat protein [3]: 11.3 nM
UUGUUGUAUGUAGGAUAUGCAUAUUGUUAUUAUGCAGAAGGACAUGAGGAUCACCCAUGUAUAUUAUUAUUAUAUGUUAUAUAU [Title] (Eterna round: R96, puzzle: Exclusion NG 1) | – | – | 17.9 | –
UAUGGUAAAGUCAGGAUAUACGUGCAGUUUUCUAGGUAGAAGGGACAUGAGGAUCACCCAUGUAUGGUAGUGUU [Ex4 #46] (Eterna round: R97, puzzle: Brourd's mod of Exclusion 4) | 95.1 | 83.5 | – | –
